Where a SMILES comes first, the peptide text is derived from it. The star is where a group is joined. X1 = COc1ccc2c3c1O[C@H]1C(O*)=CC[C@H]4[C@@H](C2)N(C)CC[C@]314
Legend:
[1] = Oral bioavailability of hydrocodone conjugates in rats, LC/MS/MS; conditions: for AUC (ng/ml h) 0-8 h / Cmax: hydrocodone plus hydromorphone; for Percent HC (AUC) / Percent HC (Cmax): relative to hydrocodone bitartrate; for Percent HC + HM (AUC) / Percent HC + HM (Cmax): relative to parameter following hydrocodone bitartrate
[2] = Intranasal bioavailability of hydrocodone conjugates in rats, LC/MS/MS; conditions: intranasal, 1 mg/kg
[3] = oral, 1 mg/kg hydrocodone base content
[4] = oral, 1 mg/kg hydrocodone base content, 0 h
[5] = oral, 1 mg/kg hydrocodone base content, 0.1 h
[6] = oral, 1 mg/kg hydrocodone base content, 1.0 h
[7] = oral, 1 mg/kg hydrocodone base content, 2.0 h
[8] = oral, 1 mg/kg hydrocodone base content, 4.0 h
[9] = oral, 2 mg/kg hydrocodone base content
[10] = oral, 2 mg/kg hydrocodone base content, 0 h
[11] = oral, 2 mg/kg hydrocodone base content, 0.1 h
[12] = oral, 2 mg/kg hydrocodone base content, 0.5 h
[13] = oral, 2 mg/kg hydrocodone base content, 1.0 h
[14] = oral, 2 mg/kg hydrocodone base content, 2.0 h
[15] = oral, 2 mg/kg hydrocodone base content, 4.0 h
[16] = oral, 5 mg/kg hydrocodone base content
[17] = oral, 5 mg/kg hydrocodone base content, 0 h
[18] = oral, 5 mg/kg hydrocodone base content, 0.1 h
[19] = oral, 5 mg/kg hydrocodone base content, 0.5 h
[20] = oral, 5 mg/kg hydrocodone base content, 1.0 h
[21] = oral, 5 mg/kg hydrocodone base content, 2.0 h
[22] = oral, 5 mg/kg hydrocodone base content, 4.0 h
[23] = oral, 25 mg/kg hydrocodone base content
[24] = oral, 25 mg/kg hydrocodone base content, 0 h
[25] = oral, 25 mg/kg hydrocodone base content, 0.1 h
[26] = oral, 25 mg/kg hydrocodone base content, 0.5 h
[27] = oral, 25 mg/kg hydrocodone base content, 1.0 h
[28] = oral, 25 mg/kg hydrocodone base content, 2.0 h
[29] = oral, 25 mg/kg hydrocodone base content, 4.0 h

## CC[C@H](C)[C@H](NC(=O)[C@H](Cc1ccccc1)NC(=O)[C@H](Cc1ccccc1)NC(=O)[C@H](Cc1ccc(O)cc1)NC(=O)[C@@H](N)Cc1ccc(O)cc1)C(=O)OC1=CC[C@H]2[C@H]3Cc4ccc(OC)c5c4[C@@]2(CCN3C)[C@H]1O5 [YYFFI[SEQ ID NO: 8]-HC, Tyr-Tyr-Phe-Phe-Ile[SEQ ID NO: 8]-(6-O)-Hydrocodone] (H-YYFFI-X1)
[1]; oral bioavailability
  Percent Decrease 1 mg/kg vs. 5 mg/kg AUC: 15%
  Percent Decrease 1 mg/kg vs. 5 mg/kg Cmax: 23%
[1]; oral, 1 mg/kg dose, 0.5 Hours
  hydrocodone plus hydromorphone concentration: 7 ng/mL
[1]; oral, 1 mg/kg dose, 1.0 Hours
  hydrocodone plus hydromorphone concentration: 3.7 ng/mL
[1]; oral, 1 mg/kg dose, 1.5 Hours
  hydrocodone plus hydromorphone concentration: 4.3 ng/mL
[1]; oral, 1 mg/kg dose, 3 Hours
  hydrocodone plus hydromorphone concentration: 1.4 ng/mL
[1]; oral, 1 mg/kg dose, 5 Hours
  hydrocodone plus hydromorphone concentration: 1.1 ng/mL
[1]; oral, 1 mg/kg dose, 8 Hours
  hydrocodone plus hydromorphone concentration: 0 ng/mL
[1]; oral, 1 mg/kg dose
  AUC (ng/ml h) 0-8 h: 14.9 ng·h/mL
  Cmax: 7 ng/mL
  Percent HC (AUC): 110%
  Percent HC (Cmax): 81%
[1]; [3]
  Hydrocodone AUC: 26.3
  Hydrocodone Cmax: 20.3 ng/mL
  Hydrocodone plus hydromorphone AUC, Percent HC relative to hydrocodone bitartrate: 64%
  Hydrocodone plus hydromorphone Cmax: 20.8 ng/mL
  Hydrocodone plus hydromorphone Cmax, Percent HC relative to hydrocodone bitartrate: 18%
  Hydromorphone AUC, Percent HM relative to hydrocodone bitartrate: 97%
  Hydromorphone Cmax: 2.9 ng/mL
  Hydromorphone Cmax, Percent HM relative to hydrocodone bitartrate: 89%
[1]; [4]
  Mean hydrocodone plus hydromorphone concentration: 0 ng/mL
  Mean hydromorphone concentration: 0 ng/mL
[1]; oral, 1 mg/kg hydrocodone base content, 0 Hours
  Mean hydrocodone concentration: 0 ng/mL
[1]; oral, 1 mg/kg hydrocodone base content, 0.1 Hours
  Mean hydrocodone concentration: 20.3 ng/mL
[1]; oral, 1 mg/kg hydrocodone base content, 0.5 Hours
  Mean hydrocodone concentration: 17.9 ng/mL
[1]; oral, 1 mg/kg hydrocodone base content, 1.0 Hours
  Mean hydrocodone concentration: 10.4 ng/mL
[1]; oral, 1 mg/kg hydrocodone base content, 2.0 Hours
  Mean hydrocodone concentration: 2.8 ng/mL
[1]; oral, 1 mg/kg hydrocodone base content, 4.0 Hours
  Mean hydrocodone concentration: 1.2 ng/mL
[1]; [5]
  Mean hydrocodone plus hydromorphone concentration: 20.6 ng/mL
  Mean hydromorphone concentration: 0.27 ng/mL
[1]; oral, 1 mg/kg hydrocodone base content, 0.5 h
  Mean hydromorphone concentration: 2.87 ng/mL
[1]; [6]
  Mean hydrocodone plus hydromorphone concentration: 12.8 ng/mL
  Mean hydromorphone concentration: 2.39 ng/mL
[1]; [7]
  Mean hydrocodone plus hydromorphone concentration: 5.0 ng/mL
  Mean hydromorphone concentration: 2.24 ng/mL
[1]; [8]
  Mean hydrocodone plus hydromorphone concentration: 2.2 ng/mL
  Mean hydromorphone concentration: 1.02 ng/mL
[1]; oral, 1 mg/kg
  Percent HC + HM (AUC): 58%
  Percent HC + HM (Cmax): 18%
[1]; [9]
  Hydrocodone AUC: 48
  Hydrocodone Cmax: 35.2 ng/mL
  Hydrocodone plus hydromorphone AUC, Percent HC relative to hydrocodone bitartrate: 103%
  Hydrocodone plus hydromorphone Cmax: 36.3 ng/mL
  Hydrocodone plus hydromorphone Cmax, Percent HC relative to hydrocodone bitartrate: 53%
  Hydromorphone AUC, Percent HM relative to hydrocodone bitartrate: 61%
  Hydromorphone Cmax: 8.7 ng/mL
  Hydromorphone Cmax, Percent HM relative to hydrocodone bitartrate: 48%
[1]; [10]
  Mean hydrocodone plus hydromorphone concentration: 0 ng/mL
  Mean hydromorphone concentration: 0 ng/mL
[1]; oral, 2 mg/kg hydrocodone base content, 0 Hours
  Mean hydrocodone concentration: 0 ng/mL
[1]; oral, 2 mg/kg hydrocodone base content, 0.1 Hours
  Mean hydrocodone concentration: 35.2 ng/mL
[1]; oral, 2 mg/kg hydrocodone base content, 0.5 Hours
  Mean hydrocodone concentration: 23 ng/mL
[1]; oral, 2 mg/kg hydrocodone base content, 1.0 Hours
  Mean hydrocodone concentration: 14.4 ng/mL
[1]; oral, 2 mg/kg hydrocodone base content, 2.0 Hours
  Mean hydrocodone concentration: 9.8 ng/mL
[1]; oral, 2 mg/kg hydrocodone base content, 4.0 Hours
  Mean hydrocodone concentration: 3.3 ng/mL
[1]; [11]
  Mean hydrocodone plus hydromorphone concentration: 36.3 ng/mL
  Mean hydromorphone concentration: 1.13 ng/mL
[1]; [12]
  Mean hydrocodone plus hydromorphone concentration: 31.7 ng/mL
  Mean hydromorphone concentration: 8.74 ng/mL
[1]; [13]
  Mean hydrocodone plus hydromorphone concentration: 18.0 ng/mL
  Mean hydromorphone concentration: 3.63 ng/mL
[1]; [14]
  Mean hydrocodone plus hydromorphone concentration: 13.2 ng/mL
  Mean hydromorphone concentration: 3.41 ng/mL
[1]; [15]
  Mean hydrocodone plus hydromorphone concentration: 4.2 ng/mL
  Mean hydromorphone concentration: 0.88 ng/mL
[1]; oral, 2 mg/kg
  Percent HC + HM (AUC): 126%
  Percent HC + HM (Cmax): 58%
[1]; oral, 5 mg/kg dose, 0.5 Hours
  hydrocodone plus hydromorphone concentration: 46 ng/mL
[1]; oral, 5 mg/kg dose, 1.0 Hours
  hydrocodone plus hydromorphone concentration: 33 ng/mL
[1]; oral, 5 mg/kg dose, 1.5 Hours
  hydrocodone plus hydromorphone concentration: 34 ng/mL
[1]; oral, 5 mg/kg dose, 3 Hours
  hydrocodone plus hydromorphone concentration: 13 ng/mL
[1]; oral, 5 mg/kg dose, 5 Hours
  hydrocodone plus hydromorphone concentration: 8.3 ng/mL
[1]; oral, 5 mg/kg dose, 8 Hours
  hydrocodone plus hydromorphone concentration: 4.5 ng/mL
[1]; oral, 5 mg/kg dose
  AUC (ng/ml h) 0-8 h: 105 ng·h/mL
  Cmax: 46 ng/mL
  Percent HC (AUC): 86%
  Percent HC (Cmax): 63%
[1]; [16]
  Hydrocodone AUC: 47
  Hydrocodone Cmax: 26.6 ng/mL
  Hydrocodone plus hydromorphone Cmax: 32.9 ng/mL
  Hydromorphone AUC, Percent HM relative to hydrocodone bitartrate: 51%
  Hydromorphone Cmax: 10.4 ng/mL
  Hydromorphone Cmax, Percent HM relative to hydrocodone bitartrate: 77%
[1]; [17]
  Mean hydrocodone plus hydromorphone concentration: 0 ng/mL
  Mean hydromorphone concentration: 0 ng/mL
[1]; oral, 5 mg/kg hydrocodone base content, 0 Hours
  Mean hydrocodone concentration: 0 ng/mL
[1]; oral, 5 mg/kg hydrocodone base content, 0.1 Hours
  Mean hydrocodone concentration: 26.6 ng/mL
[1]; oral, 5 mg/kg hydrocodone base content, 0.5 Hours
  Mean hydrocodone concentration: 22.5 ng/mL
[1]; oral, 5 mg/kg hydrocodone base content, 1.0 Hours
  Mean hydrocodone concentration: 15.1 ng/mL
[1]; oral, 5 mg/kg hydrocodone base content, 2.0 Hours
  Mean hydrocodone concentration: 10.3 ng/mL
[1]; oral, 5 mg/kg hydrocodone base content, 4.0 Hours
  Mean hydrocodone concentration: 3.6 ng/mL
[1]; [18]
  Mean hydrocodone plus hydromorphone concentration: 27.1 ng/mL
  Mean hydromorphone concentration: 0.49 ng/mL
[1]; [19]
  Mean hydrocodone plus hydromorphone concentration: 32.9 ng/mL
  Mean hydromorphone concentration: 10.41 ng/mL
[1]; [20]
  Mean hydrocodone plus hydromorphone concentration: 19.9 ng/mL
  Mean hydromorphone concentration: 4.82 ng/mL
[1]; [21]
  Mean hydrocodone plus hydromorphone concentration: 13.5 ng/mL
  Mean hydromorphone concentration: 3.17 ng/mL
[1]; [22]
  Mean hydrocodone plus hydromorphone concentration: 4.7 ng/mL
  Mean hydromorphone concentration: 1.07 ng/mL
[1]; oral, 5 mg/kg
  Percent HC + HM (AUC): 20%
  Percent HC + HM (Cmax): 4%
[1]; [23]
  Hydrocodone AUC: 135.0
  Hydrocodone Cmax: 41.4 ng/mL
  Hydrocodone plus hydromorphone Cmax: 49.4 ng/mL
  Hydromorphone AUC, Percent HM relative to hydrocodone bitartrate: 33%
  Hydromorphone Cmax: 16.2 ng/mL
  Hydromorphone Cmax, Percent HM relative to hydrocodone bitartrate: 37%
[1]; [24]
  Mean hydrocodone plus hydromorphone concentration: 0 ng/mL
  Mean hydromorphone concentration: 0 ng/mL
[1]; oral, 25 mg/kg hydrocodone base content, 0 Hours
  Mean hydrocodone concentration: 0 ng/mL
[1]; oral, 25 mg/kg hydrocodone base content, 0.1 Hours
  Mean hydrocodone concentration: 41.4 ng/mL
[1]; oral, 25 mg/kg hydrocodone base content, 0.5 Hours
  Mean hydrocodone concentration: 23.3 ng/mL
[1]; oral, 25 mg/kg hydrocodone base content, 1.0 Hours
  Mean hydrocodone concentration: 31.0 ng/mL
[1]; oral, 25 mg/kg hydrocodone base content, 2.0 Hours
  Mean hydrocodone concentration: 43.9 ng/mL
[1]; oral, 25 mg/kg hydrocodone base content, 4.0 Hours
  Mean hydrocodone concentration: 25.0 ng/mL
[1]; [25]
  Mean hydrocodone plus hydromorphone concentration: 49.4 ng/mL
  Mean hydromorphone concentration: 8.00 ng/mL
[1]; [26]
  Mean hydrocodone plus hydromorphone concentration: 33.7 ng/mL
  Mean hydromorphone concentration: 10.35 ng/mL
[1]; [27]
  Mean hydrocodone plus hydromorphone concentration: 43.7 ng/mL
  Mean hydromorphone concentration: 12.70 ng/mL
[1]; [28]
  Mean hydrocodone plus hydromorphone concentration: 60.1 ng/mL
  Mean hydromorphone concentration: 16.22 ng/mL
[1]; [29]
  Mean hydrocodone plus hydromorphone concentration: 34.0 ng/mL
  Mean hydromorphone concentration: 8.98 ng/mL
[1]; oral, 25 mg/kg
  Percent HC + HM (AUC): 32%
  Percent HC + HM (Cmax): 10%
[1]; rat, oral, 5 mg/kg
  Peak levels and bioavailability: substantially decreased
[2]; 0 min
  Mean HC (hydrocodone) concentration: 0 ng/mL
  Mean HC + HM concentration: 0 ng/mL
  Mean HM (hydromorphone) concentration: 0 ng/mL
[2]; 5 min
  Mean HC (hydrocodone) concentration: 28 ng/mL
  Mean HC + HM concentration: 28 ng/mL
  Mean HM (hydromorphone) concentration: bql^3
[2]; 15 min
  Mean HC (hydrocodone) concentration: 27 ng/mL
  Mean HC + HM concentration: 27 ng/mL
  Mean HM (hydromorphone) concentration: bql^4
[2]; 30 min
  Mean HC (hydrocodone) concentration: 16 ng/mL
  Mean HC + HM concentration: 16 ng/mL
  Mean HM (hydromorphone) concentration: bql^5
[2]; 60 min
  Mean HC (hydrocodone) concentration: 21 ng/mL
  Mean HC + HM concentration: 21 ng/mL
  Mean HM (hydromorphone) concentration: bql^6
